From patent US20040180399A1 (Pfizer, published 2004) come the findings set out here.

B1: IL-22BP-Ig (Fc fusion)
chain: TQSTHESLKPQRVQFQSRNFHNILQWQPGRALTGNSSVYFVQYKIYGQRQWKNKEDCWGTQELSCDLTSETSDIQEPYYGRVRAASAGSYSEWSMTPRFTPWWETKIDPPVMNITQVNGSLLVILHAPNLPYRYQKEKNVSIEDYYELLYRVFIINNSLEKEQKVYEGAHRAVEIEALTPHSSYCVVAEIYQPMLDRRSQRSEERCVEIP
notes: Used as supernatant of transiently transfected HEK293 cells; it may begin with Met or Met Met; also called IL-TIFR-Ig; IL-22BP fusion protein; not shown: hinge, CH2 and CH3 domains of murine IgG3 isotype heavy chain, amplified from IgG3 anti-TNP hybridoma C3110

The target of one experiment is T1, bovine serum albumin (bovine, UniProt P02769 25-607).
T1 construct: Negative control coating in the ELISA; also called BSA
Put plainly: ELISA, coated plate, HEK293 supernatant, anti-Ig peroxidase detection. As for the experimental part:
(§1) Assays were then carried out by coating polystyrene plates with either 0.083 mg/ml of recombinant human IL-TIF/IL-22, or […] bovine serum albumin, in 20 mm Tris. Glycine buffer containing 30 mm NaCl, pH 9.2, overnight, at 4° C. Following washing in PBS buffer plus Tween 20 (10⁻⁴) plates were blocked with PBS plus 1% BSA for two hours, and then 50 μl of supernatant from transiently transfected HEK293 cells was added. Plates were then incubated for 2 hours, at 37° C. Any bound fusion protein was detected, using murine anti-Ig polyclonal antibodies coupled to peroxidase. Detection was carried out using the peroxidase substrate “TMB”, or (3,3′,5, 5′-tetramethylbenzidine), and stopped by 20 μl H₂S0_{4.}
A general note: An ELISA detects its analyte on a solid surface through an enzyme-linked reagent.

The experiment “IL-22BP-Ig” has as its target B1. Put plainly: ELISA, IL-TIF/IL-22 coated on plate, HEK293 supernatant, anti-Ig peroxidase detection. As to the method:
as §1

T1 sequence (P02769 25-607 limits assumed): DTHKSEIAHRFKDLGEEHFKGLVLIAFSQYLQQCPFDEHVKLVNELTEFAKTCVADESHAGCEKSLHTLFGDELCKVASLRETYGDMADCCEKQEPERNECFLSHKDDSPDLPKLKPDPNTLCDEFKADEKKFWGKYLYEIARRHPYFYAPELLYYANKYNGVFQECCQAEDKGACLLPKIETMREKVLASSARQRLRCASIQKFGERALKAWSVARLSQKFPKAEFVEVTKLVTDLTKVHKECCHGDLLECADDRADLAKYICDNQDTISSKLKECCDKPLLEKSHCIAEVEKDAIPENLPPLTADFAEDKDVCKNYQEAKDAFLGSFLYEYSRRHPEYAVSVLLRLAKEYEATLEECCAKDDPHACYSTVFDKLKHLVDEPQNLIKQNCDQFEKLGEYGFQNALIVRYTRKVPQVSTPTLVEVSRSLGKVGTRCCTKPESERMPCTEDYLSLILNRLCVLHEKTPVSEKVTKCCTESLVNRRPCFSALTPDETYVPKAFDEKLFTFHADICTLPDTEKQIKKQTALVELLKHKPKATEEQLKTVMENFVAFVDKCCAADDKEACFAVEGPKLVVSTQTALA

Turning to B1, the binding result in the experiment with bovine serum albumin is listed as “no binding”.

B2: IL-22R-Ig (Fc fusion, UniProt Q8N6P7 16-228, looked up)
chain: HAPEDPSDLLQHVKFQSSNFENILTWDSGPEGTPDTVYSIEYKTYGERDWVAKKGCQRITRKSCNLTVETGNLTELYYARVTAVSAGGRSATKMTDRFSSLQHTTLKPPDVTCISKVRSIQMIVHPTPTPIRAGDGHRLTLEDIFHDLFYHLELQVNRTYQMHLGGKQREYEFFGLTPDTEFLGTIMICVPTWAKESAPYMCRVKTLPDRTWT
notes: Used as supernatant of transiently transfected HEK293 cells; also called fusion protein of IL-22R and the IgG3 Fc fragment; not shown: IgG3 Fc fragment, made 'in similar fashion' to the murine IgG3 hinge-CH2-CH3 of IL-TIFR-Ig
In the case of B2, in the experiment with bovine serum albumin, the binding result is on record as “no binding”.

B3: recombinant human IL-TIF/IL-22 (ligand, UniProt Q9GZX6 34-179, looked up)
chain: APISSHCRLDKSNFQQPYITNRTFMLAKEASLADNNTDVRLIGEKLFHGVSMSERCYLMKQVLNFTLEEVLFPQSDRFQPYMQEVVPFLARLSNRLSTCHIEGDDLHIQRNVQKLKDTVKKLGESGEIKAIGELDLLFMSLRNACI
B3: the binding result with IL-22BP-Ig was “binds”.
